Results taken from the supplement of paper PMC10724198.
± gives the standard deviation of the averaged measurements.

Test system: Saccharomyces cerevisiae
Experiment: protein stability index of tFT-peptide fusion (C-terminal peptide) (PSI (0-1 scale)); higher = more stable (slower turnover)
Conditions: genetic background: wild type; temperature: 30 C
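Note: PSI is a weighted mean of sequencing reads over stability bins, variants kept only with over 10 reads, mCherry proximal and sfGFP distal, peptide attached via GGGS linker.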

Sequence	protein stability index
RKKQKKQKKKKG	0.682 ± 0.0092
RKKRFENKKEKY	0.731 ± 0.057
RKNHKKNHKTRI	0.65 ± 0.087
RKNKQVDLCHRE	0.676 ± 0.037
RKSRKPNSEPKR	0.717 ± 0.0072
RKSTVILLLTDT	0.668 ± 0.054
RKTKKEEKTKRN	0.719 ± 0.2
RKVTQSKQGKKR	0.722 ± 0.0093
RKYKKKKGSKEE	0.708 ± 0.063
RLCPNSITLPSL	0.7156 ± 0.0018
RLDVVGVPERTL	0.762 ± 0.047
RLEKGEDREGKK	0.641 ± 0.085
RLEMPSVRSCAV	0.638 ± 0.17
RLFGFGEQKIEE	0.695 ± 0.021
RLGERGAKPQGR	0.635 ± 0.0074
RLGGTMVVGTGG	0.661 ± 0.041
RLGHAIVLLLPC	0.57 ± 0.027
RLGKRKKPYTQG	0.756 ± 0.077
RLGLQWGEFGTL	0.72 ± 0.033
RLHHQYSEATIS	0.703 ± 0.027
RLHSLFVSCPTC	0.703 ± 0.023
RLIPYPPPLSLP	0.724 ± 0.021
RLLGLWGEVMGF	0.731 ± 0.021
RLLGSGHCLLYI	0.613 ± 0.047
RLPAFSSDLLRH	0.704 ± 0.046
RLPLRVTGIPVD	0.6668 ± 0.0016

Sequence	protein stability index
RLPPPLPQAPPT	0.712 ± 0.023
RLPQIHSDREQK	0.746 ± 0.018
RLPSPPTAPAPP	0.658 ± 0.0084
RLRASFFFSPAL	0.733 ± 0.056
RLRFIGDCKSST	0.637 ± 0.031
RLRGLLSPVGPQ	0.716 ± 0.047
RLRVIMVSVGGV	0.544 ± 0.0079
RLSDFFSPPLLP	0.717 ± 0.047
RLSMCLDDPPRL	0.717 ± 0.025
RLSPGSPSPFPC	0.691 ± 0.029
RLSSFDELSDVY	0.729 ± 0.026
RLYTNEMIRGSF	0.69 ± 0.04
RMGGRGGRLGAE	0.657 ± 0.018
RMGWSGKVGVVG	0.78 ± 0.11
RMNSDMKDTEAQ	0.65 ± 0.0075
RNARSPACRTRR	0.7481 ± 0.0052
RNFWIYTHTRCR	0.668 ± 0.049
RNKLEKKIYKRS	0.672 ± 0.014
RNKSRMWKEIIR	0.657 ± 0.069
RNRAGHVGCYGL	0.6989 ± 0.0066
RNRSNTQAKVIR	0.6725 ± 0.004
RNTKGTIKKKKE	0.715 ± 0.074
RNTPFVCVRNGA	0.726 ± 0.16
RPAFSPDVSPPS	0.716 ± 0.013
RPEAVARIFDDE	0.724 ± 0.013
RPFLSVLPLFFP	0.734 ± 0.0017

Sequence	protein stability index
RPFSSPSPSLPA	0.743 ± 0.071
RPGGSRTEGRRT	0.683 ± 0.033
RPPISLGSLLVG	0.714 ± 0.1
RPPPAAPLHITS	0.714
RPPPHPPFPPRF	0.714 ± 0.052
RPPPLPLPPHFP	0.709 ± 0.069
RPPPPLSPPSLV	0.73 ± 0.0084
RPPRPSSSPLPP	0.719 ± 0.059
RPPSLWRSSFTP	0.6822 ± 0.0026
RPQNDRKMRKVE	0.621 ± 0.059
RPRELHNSETVY	0.683 ± 0.025
RPRTLLARSTHP	0.717 ± 0.013
RPRVDLCDINPE	0.692 ± 0.021
RPSHPPHLPPPV	0.6753 ± 0.0044
RPSLSPLHVPPS	0.748 ± 0.047
RPVRYVLSGGCI	0.68 ± 0.012
RPYKINNNIEVK	0.676 ± 0.01
RQEKITQHRARI	0.689 ± 0.024
RQLGELASARWL	0.709 ± 0.025
RQPRPPDDIASV	0.678 ± 0.032
RQRSKEPVVQAY	0.654 ± 0.046
RQSSPKQDRKPS	0.679 ± 0.048
RRATHTRDINNL	0.643 ± 0.015
RRERQRRARTEI	0.6876 ± 0.0036
RREVFIPSTRVL	0.698 ± 0.044
RRGAPSYATLAL	0.637 ± 0.0073

Sequence	protein stability index
RRGASWDEDAGS	0.719 ± 0.0086
RRGENQSFPACR	0.701 ± 0.028
RRGHMTRFTHSR	0.692 ± 0.077
RRGPDRCSSLPS	0.6638 ± 0.0044
RRHHSVSPLPFL	0.709 ± 0.0099
RRIGKTFLSLNI	0.709 ± 0.073
RRKGGEERKLKK	0.629 ± 0.037
RRKRTKGRGRAQ	0.6986 ± 0.002
RRLAGRPVTRGA	0.667 ± 0.015
RRLEPGVAWFPT	0.661 ± 0.01
RRLLRWFYLDGG	0.661 ± 0.022
RRMAGEPKCGRS	0.699 ± 0.015
RRPGGQGHPNAG	0.752 ± 0.023
RRPGSTTPPAYR	0.675 ± 0.048
RRPTVLRHQSPI	0.737 ± 0.031
RRREESGEGSEQ	0.635 ± 0.073
RRRLLLWEELVE	0.7706 ± 0.004
RRRQARGANAHS	0.7 ± 0.013
RRRRAVGPREAP	0.717 ± 0.17
RRRREKWSVVHR	0.758 ± 0.0096
RRRTARVRTGQV	0.647 ± 0.043
RRRVADIYHGEK	0.713 ± 0.086
RRSGLTNLCSLH	0.746 ± 0.04
RRSRPSSPYLPP	0.707 ± 0.0094
RRTTYKKVKRKK	0.65 ± 0.062
RRVGPVSPNWIS	0.6499 ± 0.0042

Sequence	protein stability index
RRVPVVSRAGGG	0.697 ± 0.067
RRWAFWGAAAAR	0.702 ± 0.013
RRWCATLGRDRV	0.7029 ± 0.0051
RRWGGCPGVRGC	0.666 ± 0.019
RSANIINPHIFP	0.758 ± 0.014
RSASPPRPLPPP	0.737 ± 0.032
RSCCSFRLEPYC	0.671 ± 0.026
RSCVGGISVLVL	0.466 ± 0.085
RSEPRQILHRQT	0.702 ± 0.025
RSFAGTTRIRLG	0.739 ± 0.043
RSFLTDLLRGAA	0.647 ± 0.054
RSFPYLLFPPPS	0.713 ± 0.046
RSGLHGSGRPGG	0.715 ± 0.053
RSHPSPPPVILY	0.686 ± 0.045
RSLGFPLRNVTH	0.655 ± 0.015
RSLGLVGRGFWG	0.728 ± 0.086
RSLRSSRSGTLA	0.848 ± 0.014
RSMLVSRQSIGV	0.695 ± 0.019
RSNECTSEMEVC	0.689 ± 0.04
RSPPPSLTPSPL	0.68193 ± 0.00027
RSPTGSPGRSFS	0.687 ± 0.025
RSRATIGSQILS	0.688 ± 0.01
RSRCHPRLPRAV	0.707 ± 0.03
RSRHPPPPLLFP	0.707 ± 0.043
RSRLSEAEEYGR	0.71 ± 0.0072
RSRPPPSPTTPL	0.775 ± 0.054

Sequence	protein stability index
RSRRFPPTRPPL	0.73956 ± 0.00073
RSRYRLFRADLS	0.753 ± 0.062
RSSGAFKVCTDR	0.684 ± 0.019
RSSGPPCLIPLP	0.787 ± 0.047
RSSLGSFSELSQ	0.777 ± 0.031
RSSPPHLPPPSL	0.68 ± 0.026
RSSSPLPLLSLL	0.753 ± 0.053
RSTLSPSPRPSP	0.674 ± 0.0042
RSTSGACSRRWL	0.624 ± 0.025
RSVSLIAVAPSA	0.692 ± 0.017
RSWIDNKMKVNV	0.721 ± 0.0076
RSYLLVWTSRLH	0.637 ± 0.02
RTAGQRLIRVNR	0.744 ± 0.075
RTAPVPETAQQD	0.678 ± 0.034
RTAVFLTRRYGT	0.673 ± 0.02
RTDKETIKKIVE	0.72 ± 0.014
RTLNPHLYRLRH	0.682 ± 0.024
RTRPCNGPGRFG	0.724 ± 0.057
RTTHPSPPTLTV	0.629 ± 0.021
RVCDSAPKRNRH	0.676 ± 0.018
RVCLVVWRECWF	0.509 ± 0.0082
RVCYRAELSAMS	0.559 ± 0.045
RVDGDFDYPRVV	0.82 ± 0.11
RVDLPFDRSVSD	0.702 ± 0.057
RVEADMKKRWTG	0.716 ± 0.028
RVGGPGNRGGVV	0.696 ± 0.058

Sequence	protein stability index
RVGRCYPSIVRS	0.6522 ± 0.0042
RVGRKGRRRGSR	0.767 ± 0.07
RVGTGFVGYSFS	0.679 ± 0.13
RVGVEYGETGGG	0.732 ± 0.29
RVIHLRKIHYEE	0.6728 ± 0.005
RVLCYHFSPGVV	0.656 ± 0.057
RVLPPAPLQALQ	0.645 ± 0.018
RVLWVELGSWGG	0.708 ± 0.045
RVMPRVNDKKGI	0.732 ± 0.092
RVNQRRATSEKT	0.677 ± 0.0082
RVRDPQQISILL	0.65 ± 0.025
RVRGAPGLRHES	0.5 ± 0.1
RVRWLRGVPGGL	0.635 ± 0.09
RVVCGGMGVRRG	0.63 ± 0.077
RVVFHPFVQSLF	0.62 ± 0.028
RVVGLWGSACMG	0.603 ± 0.01
RVWFWSGRGGEF	0.709 ± 0.1
RWAMGAAGGLQA	0.697 ± 0.021
RWFGRFSFCLFF	0.5 ± 0.055
RWGPGAVWGRGR	0.707 ± 0.068
RWGWWGYRGGVP	0.744 ± 0.025
RWIPRMSFSESQ	0.666 ± 0.0097
RWLGGTGGWKSR	0.673 ± 0.041
RWPQNRGRVSKP	0.747 ± 0.017
RWVGWGAWLSEV	0.611 ± 0.02
RWVNNKKTKGQD	0.767 ± 0.042

Sequence	protein stability index
RWVWRNRSGGGE	0.636 ± 0.043
RYELSLRLYGSL	0.623 ± 0.089
RYFISAHPGGIA	0.66 ± 0.02
RYGHSRLCLGFR	0.657 ± 0.12
RYHPRSHVLGRD	0.682 ± 0.063
RYKALEAQGPRF	0.717 ± 0.0008
RYLAEKAVLTHN	0.659 ± 0.012
RYSPFSFLASLP	0.732 ± 0.049
SACCNFAPAFGQ	0.662 ± 0.019
SADGIVSQVTCL	0.693 ± 0.031
SAFDVLCHVVVG	0.634 ± 0.021
SAFPGGCCSILL	0.709 ± 0.022
SAHPFLPLFSPP	0.718 ± 0.012
SALEVSPSNGSF	0.598 ± 0.015
SALTPCPPPYSH	0.668 ± 0.032
SALVLVLPSIPP	0.649 ± 0.024
SANCQQSRMFIT	0.623 ± 0.044
SAPILPPQSSSP	0.749 ± 0.035
SAPLVSLHLSPL	0.68 ± 0.011
SAPPDVAPLFSP	0.74 ± 0.053
